# Columns and labels:
# human LFA-1 (human) [1] = molecular target: human LFA-1 (human) (UniProt P20701); assay: phage ELISA, solution competition: Fab-phage incubated with serially diluted LFA-1, unbound phage captured on LFA-1-coated wells; IC50 used as affinity estimate
# human LFA-1 (human) [2] = molecular target: human LFA-1 (human) (UniProt P20701); assay: phage ELISA, Fab on phage, competition with antigen in solution; IC50 used as affinity estimate
# human LFA-1 (human) [3] = molecular target: human LFA-1 (human) (UniProt P20701); assay: phage ELISA, Fab on phage, competition with antigen in solution
Binder,IC50 (human LFA-1 (human) [1]) [nM],IC50 (human LFA-1 (human) [2]) [nM],IC50 (human LFA-1 (human) [3]) [nM]
"MHM24 library clone, CDR-L2 SGSTLES (Fab, V domains shown) VH: EVQLVESGGGLVQPGGSLRLSCAASGYSFTGHWMNWVRQAPGKGLEWVGMIHPSDSETRLNQKFKDRFTISADTSKNTAYLQMNSLRAEDTAVYYCARGIYFYGTTYFDYWGQGTLVTVSS VL: DIQMTQSPSSLSASVGDRVTITCRASKTISKYLAWYQQKPGKAPKLLIYSGSTLESGVPSRFSGSGSGTDFTLTISSLQPEDFATYYCQQHNEYPLTFGQGTKVEIK",9,–,–
"MHM24 library clone, CDR-L2 SGSALQS (Fab, V domains shown) VH: EVQLVESGGGLVQPGGSLRLSCAASGYSFTGHWMNWVRQAPGKGLEWVGMIHPSDSETRLNQKFKDRFTISADTSKNTAYLQMNSLRAEDTAVYYCARGIYFYGTTYFDYWGQGTLVTVSS VL: DIQMTQSPSSLSASVGDRVTITCRASKTISKYLAWYQQKPGKAPKLLIYSGSALQSGVPSRFSGSGSGTDFTLTISSLQPEDFATYYCQQHNEYPLTFGQGTKVEIK",8,–,–
"MHM24 library clone, CDR-L2 SGRTLWP (Fab, V domains shown) VH: EVQLVESGGGLVQPGGSLRLSCAASGYSFTGHWMNWVRQAPGKGLEWVGMIHPSDSETRLNQKFKDRFTISADTSKNTAYLQMNSLRAEDTAVYYCARGIYFYGTTYFDYWGQGTLVTVSS VL: DIQMTQSPSSLSASVGDRVTITCRASKTISKYLAWYQQKPGKAPKLLIYSGRTLWPGVPSRFSGSGSGTDFTLTISSLQPEDFATYYCQQHNEYPLTFGQGTKVEIK",17,–,–
"MHM24 library clone, CDR-L2 SGSTLES, VH S55I (Fab, V domains shown) VH: EVQLVESGGGLVQPGGSLRLSCAASGYSFTGHWMNWVRQAPGKGLEWVGMIHPSDIETRLNQKFKDRFTISADTSKNTAYLQMNSLRAEDTAVYYCARGIYFYGTTYFDYWGQGTLVTVSS VL: DIQMTQSPSSLSASVGDRVTITCRASKTISKYLAWYQQKPGKAPKLLIYSGSTLESGVPSRFSGSGSGTDFTLTISSLQPEDFATYYCQQHNEYPLTFGQGTKVEIK",4,–,–
"MHM24 library clone, CDR-L2 SGSTLES, VH D101E (Fab, V domains shown) VH: EVQLVESGGGLVQPGGSLRLSCAASGYSFTGHWMNWVRQAPGKGLEWVGMIHPSDSETRLNQKFKDRFTISADTSKNTAYLQMNSLRAEDTAVYYCARGIYFYGTTYFEYWGQGTLVTVSS VL: DIQMTQSPSSLSASVGDRVTITCRASKTISKYLAWYQQKPGKAPKLLIYSGSTLESGVPSRFSGSGSGTDFTLTISSLQPEDFATYYCQQHNEYPLTFGQGTKVEIK",8,–,–
"MHM24 direct hypervariable region graft on the acceptor human consensus framework (Fab displayed on phage) (Fab, V domains shown) VH: EVQLVESGGGLVQPGGSLRLSCAASGYSFTGHWMNWVRQAPGKGLEWVGMIHPSDSETRLNQKFKDRFTISADTSKNTAYLQMNSLRAEDTAVYYCARGIYFYGTTYFDYWGQGTLVTVSS VL: DIQMTQSPSSLSASVGDRVTITCRASKTISKYLAWYQQKPGKAPKLLIYSGSTLQSGVPSRFSGSGSGTDFTLTISSLQPEDFATYYCQQHNEYPLTFGQGTKVEIK",6,4,6
"MHM24 library clone, CDR-L2 SGRALQS (Fab, V domains shown) VH: EVQLVESGGGLVQPGGSLRLSCAASGYSFTGHWMNWVRQAPGKGLEWVGMIHPSDSETRLNQKFKDRFTISADTSKNTAYLQMNSLRAEDTAVYYCARGIYFYGTTYFDYWGQGTLVTVSS VL: DIQMTQSPSSLSASVGDRVTITCRASKTISKYLAWYQQKPGKAPKLLIYSGRALQSGVPSRFSGSGSGTDFTLTISSLQPEDFATYYCQQHNEYPLTFGQGTKVEIK",9,–,–
"MHM24 library clone, CDR-L2 SGRSLQR, VH L45P (Fab, V domains shown) VH: EVQLVESGGGLVQPGGSLRLSCAASGYSFTGHWMNWVRQAPGKGPEWVGMIHPSDSETRLNQKFKDRFTISADTSKNTAYLQMNSLRAEDTAVYYCARGIYFYGTTYFDYWGQGTLVTVSS VL: DIQMTQSPSSLSASVGDRVTITCRASKTISKYLAWYQQKPGKAPKLLIYSGRSLQRGVPSRFSGSGSGTDFTLTISSLQPEDFATYYCQQHNEYPLTFGQGTKVEIK",27,–,–
"MHM24 library clone, CDR-L2 SGRAMQR (Fab, V domains shown) VH: EVQLVESGGGLVQPGGSLRLSCAASGYSFTGHWMNWVRQAPGKGLEWVGMIHPSDSETRLNQKFKDRFTISADTSKNTAYLQMNSLRAEDTAVYYCARGIYFYGTTYFDYWGQGTLVTVSS VL: DIQMTQSPSSLSASVGDRVTITCRASKTISKYLAWYQQKPGKAPKLLIYSGRAMQRGVPSRFSGSGSGTDFTLTISSLQPEDFATYYCQQHNEYPLTFGQGTKVEIK",11,–,–
"MHM24 library clone, CDR-L2 SGSIFQY, VH Y100dT (Fab, part only; not given: CH1, light constant and phage P3, part only) light chain: DIQMTQSPSSLSASVGDRVTITCRASKTISKYLAWYQQKPGKAPKLLIYSGSIFQYGVPSRFSGSGSGTDFTLTISSLQPEDFATYYCQQHNEYPLTFGQGTKVEIKR heavy chain (VH-CH1 fused to phage P3), part: EVQLVESGGGLVQPGGSLRLSCAASGYSFTGHWMNWVRQAPGKGLEWVGMIHPSDSETRLNQKFKDRFTISADTSKNTAYLQMNSLRAEDTAVYYCARGIYFYGTTYFDYWGQGTLVTVSS",11,–,–
"MHM24 library clone, CDR-L2 TGSTLES, VL S26T (Fab, V domains shown) VH: EVQLVESGGGLVQPGGSLRLSCAASGYSFTGHWMNWVRQAPGKGLEWVGMIHPSDSETRLNQKFKDRFTISADTSKNTAYLQMNSLRAEDTAVYYCARGIYFYGTTYFDYWGQGTLVTVSS VL: DIQMTQSPSSLSASVGDRVTITCRATKTISKYLAWYQQKPGKAPKLLIYTGSTLESGVPSRFSGSGSGTDFTLTISSLQPEDFATYYCQQHNEYPLTFGQGTKVEIK",4,–,–
"MHM24 library clone, CDR-L2 SGYSLHR, VL K27E, L96V (Fab, V domains shown) VH: EVQLVESGGGLVQPGGSLRLSCAASGYSFTGHWMNWVRQAPGKGLEWVGMIHPSDSETRLNQKFKDRFTISADTSKNTAYLQMNSLRAEDTAVYYCARGIYFYGTTYFDYWGQGTLVTVSS VL: DIQMTQSPSSLSASVGDRVTITCRASETISKYLAWYQQKPGKAPKLLIYSGYSLHRGVPSRFSGSGSGTDFTLTISSLQPEDFATYYCQQHNEYPVTFGQGTKVEIK",41,–,–
"MHM24 library clone, CDR-L2 SGRSLQS, VH S28R (Fab, V domains shown) VH: EVQLVESGGGLVQPGGSLRLSCAASGYRFTGHWMNWVRQAPGKGLEWVGMIHPSDSETRLNQKFKDRFTISADTSKNTAYLQMNSLRAEDTAVYYCARGIYFYGTTYFDYWGQGTLVTVSS VL: DIQMTQSPSSLSASVGDRVTITCRASKTISKYLAWYQQKPGKAPKLLIYSGRSLQSGVPSRFSGSGSGTDFTLTISSLQPEDFATYYCQQHNEYPLTFGQGTKVEIK",17,–,–
"MHM24 library clone, CDR-L2 NARSLQS (Fab, V domains shown) VH: EVQLVESGGGLVQPGGSLRLSCAASGYSFTGHWMNWVRQAPGKGLEWVGMIHPSDSETRLNQKFKDRFTISADTSKNTAYLQMNSLRAEDTAVYYCARGIYFYGTTYFDYWGQGTLVTVSS VL: DIQMTQSPSSLSASVGDRVTITCRASKTISKYLAWYQQKPGKAPKLLIYNARSLQSGVPSRFSGSGSGTDFTLTISSLQPEDFATYYCQQHNEYPLTFGQGTKVEIK",32,–,–
"MHM24 library clone, CDR-L2 SGGTLHR (Fab, V domains shown) VH: EVQLVESGGGLVQPGGSLRLSCAASGYSFTGHWMNWVRQAPGKGLEWVGMIHPSDSETRLNQKFKDRFTISADTSKNTAYLQMNSLRAEDTAVYYCARGIYFYGTTYFDYWGQGTLVTVSS VL: DIQMTQSPSSLSASVGDRVTITCRASKTISKYLAWYQQKPGKAPKLLIYSGGTLHRGVPSRFSGSGSGTDFTLTISSLQPEDFATYYCQQHNEYPLTFGQGTKVEIK",6,–,–

# Reference: patent US20110237779A1
